Values quoted from earlier work in paper PMC9371363.

Experiments:
[1] = target: IL-4Rα (Homo sapiens) (UniProt P24394)
[2] = target: IL-13Rα2 (Homo sapiens) (UniProt Q14627)
Chain of UniProt Q14627 (Q14627 27-343): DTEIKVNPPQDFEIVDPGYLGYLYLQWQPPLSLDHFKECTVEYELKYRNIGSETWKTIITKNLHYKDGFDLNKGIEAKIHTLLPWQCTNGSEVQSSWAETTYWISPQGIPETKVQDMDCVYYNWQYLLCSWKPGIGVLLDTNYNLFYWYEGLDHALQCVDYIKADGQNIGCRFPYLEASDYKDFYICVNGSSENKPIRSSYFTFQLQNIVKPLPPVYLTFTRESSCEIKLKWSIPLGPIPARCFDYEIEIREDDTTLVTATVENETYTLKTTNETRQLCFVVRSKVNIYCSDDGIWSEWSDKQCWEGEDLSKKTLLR

Chain of UniProt P24394 (P24394 26-232): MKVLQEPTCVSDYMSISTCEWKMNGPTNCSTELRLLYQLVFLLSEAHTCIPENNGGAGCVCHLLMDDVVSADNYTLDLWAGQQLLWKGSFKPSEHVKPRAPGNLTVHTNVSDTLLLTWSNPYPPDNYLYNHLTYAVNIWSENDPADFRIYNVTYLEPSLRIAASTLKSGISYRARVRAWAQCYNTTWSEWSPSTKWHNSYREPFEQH

Row | Kd [1] [nM] | Kd [2] [pM] | Substance
1 | 0.1 | – | IL-4 (from UniProt P05112)
2 | – | < 0.001 | IL-13 (from UniProt P35225)
